Five molecules from publication PMC9371972, “Cryo-EM structure of the human CST–Polα/primase complex in a recruitment state” (Nature Structural & Molecular Biology, 2022) can be followed below.

Assay [1] concerns the target CTC1–STN1–TEN1 (CST) complex (human) (UniProt Q2NKJ3). As to the kind of experiment: cryo-EM structure; CST and Polα/primase (PP^FL or PP^ΔN) mixed equimolar (1.5 μM each) with (GGTTAG)3 ssDNA, cross-linked by GraFix (glutaraldehyde, glycerol gradient), 20 mM HEPES pH 7.5, 150 mM NaCl, 10 mM MgCl2, 0.5 mM TCEP.
In assay [2] the target is T1, full-length Polα/primase (POLA1^FL/POLA2/PRIM1/PRIM2) (human, UniProt P09884 1-1462; Q14181 1-598; P49642 1-420; P49643 1-509).
T1 construct: human POLA2; human PRIM1; human PRIM2; The methods describe no tag cleavage for this complex (PreSc site after MBP, TEV site after StrepII); also called PP^FL; DNA polymerase α–primase; source: Tni insect cells (baculovirus), purified (Ni-NTA, RESOURCE Q, SEC); copies: + + +
T1 sequence (Q14181 whole entry, chain 2 of 3): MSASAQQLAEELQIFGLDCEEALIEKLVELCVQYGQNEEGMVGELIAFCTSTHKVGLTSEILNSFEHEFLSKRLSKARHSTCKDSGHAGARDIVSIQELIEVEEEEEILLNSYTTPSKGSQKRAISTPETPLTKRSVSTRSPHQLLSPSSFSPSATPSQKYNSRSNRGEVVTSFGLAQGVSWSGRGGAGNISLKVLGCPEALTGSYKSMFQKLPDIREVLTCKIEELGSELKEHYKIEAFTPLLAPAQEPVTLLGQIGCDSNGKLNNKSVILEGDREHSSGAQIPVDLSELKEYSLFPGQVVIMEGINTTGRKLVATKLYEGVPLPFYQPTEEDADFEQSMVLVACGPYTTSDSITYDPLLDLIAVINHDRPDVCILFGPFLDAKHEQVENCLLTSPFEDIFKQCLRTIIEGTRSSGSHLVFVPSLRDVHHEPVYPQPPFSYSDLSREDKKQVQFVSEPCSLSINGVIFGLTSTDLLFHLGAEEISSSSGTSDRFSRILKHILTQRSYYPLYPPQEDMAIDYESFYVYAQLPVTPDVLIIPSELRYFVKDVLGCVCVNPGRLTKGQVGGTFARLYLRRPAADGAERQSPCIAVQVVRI
T1 sequence (P49642 whole entry, chain 3 of 3): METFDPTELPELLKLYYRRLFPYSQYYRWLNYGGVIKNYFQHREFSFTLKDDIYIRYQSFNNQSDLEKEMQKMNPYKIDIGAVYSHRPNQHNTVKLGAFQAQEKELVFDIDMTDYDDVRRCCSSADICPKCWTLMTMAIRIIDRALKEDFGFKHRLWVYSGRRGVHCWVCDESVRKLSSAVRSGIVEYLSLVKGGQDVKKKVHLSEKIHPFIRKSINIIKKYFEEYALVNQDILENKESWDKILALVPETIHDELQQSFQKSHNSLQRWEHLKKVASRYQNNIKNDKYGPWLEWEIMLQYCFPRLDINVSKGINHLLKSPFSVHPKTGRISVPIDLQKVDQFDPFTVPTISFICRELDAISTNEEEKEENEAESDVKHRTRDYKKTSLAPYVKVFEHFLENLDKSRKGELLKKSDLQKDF
T1 sequence (P49643 whole entry, chain 4 of 3): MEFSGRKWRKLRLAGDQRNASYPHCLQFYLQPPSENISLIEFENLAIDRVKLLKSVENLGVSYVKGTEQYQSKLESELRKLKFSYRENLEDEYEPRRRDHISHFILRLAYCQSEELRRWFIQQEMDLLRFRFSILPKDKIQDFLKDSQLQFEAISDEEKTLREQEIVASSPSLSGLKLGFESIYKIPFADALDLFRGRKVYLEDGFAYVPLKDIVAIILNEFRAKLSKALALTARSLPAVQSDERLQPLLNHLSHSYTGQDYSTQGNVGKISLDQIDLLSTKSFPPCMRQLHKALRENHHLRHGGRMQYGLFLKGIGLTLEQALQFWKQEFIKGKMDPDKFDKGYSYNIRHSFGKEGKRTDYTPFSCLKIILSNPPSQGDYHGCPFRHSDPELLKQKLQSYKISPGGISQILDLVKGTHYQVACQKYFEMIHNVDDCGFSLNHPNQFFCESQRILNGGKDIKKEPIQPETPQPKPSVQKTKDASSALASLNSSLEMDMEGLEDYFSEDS
The assay is described as follows: SEC; purified proteins mixed (PP^FL and CST equimolar; CST with twofold molar excess of His6-MBP-POLA1^N), 1 h at 4 °C, HiLoad Superdex 200 16/600 PG, 20 mM HEPES pH 7.5, 150 mM NaCl, 0.5 mM TCEP, 5% glycerol. The note with it: both partners purified. Background: SEC sorts molecules by how far they enter the pores of the column.

Assay [3] has as its target T2, His6-MBP-CTC1–STN1–TEN1 (human, UniProt Q2NKJ3 1-1217; Q9H668 1-368; Q86WV5 1-123, RED-tris-NTA second-generation dye on the His6 tag).
T2 chain 1: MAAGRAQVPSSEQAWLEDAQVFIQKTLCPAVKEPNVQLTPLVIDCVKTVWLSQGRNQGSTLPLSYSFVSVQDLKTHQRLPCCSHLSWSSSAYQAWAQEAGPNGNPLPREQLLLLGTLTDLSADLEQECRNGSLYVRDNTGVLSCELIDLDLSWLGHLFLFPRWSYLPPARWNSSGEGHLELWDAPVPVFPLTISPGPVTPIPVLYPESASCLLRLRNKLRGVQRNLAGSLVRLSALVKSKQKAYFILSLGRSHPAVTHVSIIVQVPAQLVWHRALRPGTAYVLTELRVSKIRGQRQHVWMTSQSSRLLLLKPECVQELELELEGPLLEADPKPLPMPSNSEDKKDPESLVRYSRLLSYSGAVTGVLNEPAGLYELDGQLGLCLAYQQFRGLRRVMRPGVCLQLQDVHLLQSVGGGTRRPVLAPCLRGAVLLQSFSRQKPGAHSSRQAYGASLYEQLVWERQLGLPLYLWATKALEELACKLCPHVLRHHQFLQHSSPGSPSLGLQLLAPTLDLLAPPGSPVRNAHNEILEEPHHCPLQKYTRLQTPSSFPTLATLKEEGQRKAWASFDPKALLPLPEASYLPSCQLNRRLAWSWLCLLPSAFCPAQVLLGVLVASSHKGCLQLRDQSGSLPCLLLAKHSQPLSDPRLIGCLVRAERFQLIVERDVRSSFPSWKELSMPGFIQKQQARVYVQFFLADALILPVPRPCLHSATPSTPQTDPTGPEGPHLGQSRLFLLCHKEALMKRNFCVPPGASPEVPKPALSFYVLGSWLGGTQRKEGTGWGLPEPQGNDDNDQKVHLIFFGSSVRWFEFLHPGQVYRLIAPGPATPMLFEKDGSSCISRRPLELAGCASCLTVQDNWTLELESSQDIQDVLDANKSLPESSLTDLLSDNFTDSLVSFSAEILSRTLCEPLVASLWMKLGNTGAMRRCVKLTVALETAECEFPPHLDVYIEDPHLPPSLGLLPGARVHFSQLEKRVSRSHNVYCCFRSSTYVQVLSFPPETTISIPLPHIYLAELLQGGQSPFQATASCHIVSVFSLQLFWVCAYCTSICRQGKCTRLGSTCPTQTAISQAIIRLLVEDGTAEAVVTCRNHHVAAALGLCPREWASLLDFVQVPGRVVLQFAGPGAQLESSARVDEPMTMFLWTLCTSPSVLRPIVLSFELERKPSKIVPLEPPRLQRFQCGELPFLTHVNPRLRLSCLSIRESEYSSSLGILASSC
T2 chain 2: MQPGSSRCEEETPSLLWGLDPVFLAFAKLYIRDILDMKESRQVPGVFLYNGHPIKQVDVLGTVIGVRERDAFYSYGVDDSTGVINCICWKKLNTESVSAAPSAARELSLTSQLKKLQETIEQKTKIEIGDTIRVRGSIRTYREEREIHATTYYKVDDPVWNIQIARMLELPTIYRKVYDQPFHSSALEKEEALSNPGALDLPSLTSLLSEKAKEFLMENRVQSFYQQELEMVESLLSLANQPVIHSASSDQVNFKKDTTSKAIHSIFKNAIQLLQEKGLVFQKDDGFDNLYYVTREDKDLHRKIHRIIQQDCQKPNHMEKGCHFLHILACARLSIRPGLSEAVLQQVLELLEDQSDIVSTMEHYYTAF
T2 chain 3: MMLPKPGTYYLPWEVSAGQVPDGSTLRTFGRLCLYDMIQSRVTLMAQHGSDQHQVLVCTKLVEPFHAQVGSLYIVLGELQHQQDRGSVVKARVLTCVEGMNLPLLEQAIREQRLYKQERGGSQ
The assay is described as follows: MST; binding event 2 (second site), independent experiment 1.

For assay [4], the target named is T2, His6-MBP-CTC1–STN1–TEN1. As to the kind of experiment: MST; binding event 2 (second site), independent experiment 3.
Assay [5] concerns the target T3, His6-MBP-CTC1–STN1–TEN1 (human, UniProt Q2NKJ3 1-1217; Q9H668 1-368; Q86WV5 1-123, RED-tris-NTA second-generation dye on the His6 tag).
T3 construct: human CTC1; human STN1; human TEN1; A PreScission site lies between MBP and CTC1; also called His6-MBP-CST; fluorescently labeled CST; source: Tni insect cells (baculovirus), purified (Ni-NTA, heparin, SEC; protease-cleavage step omitted); not shown: His6, N-terminal, kept; MBP, N-terminal, kept; copies: + +
The assay is described as follows: MST; 50 nM RED-tris-NTA-labeled His6-MBP-CST with serial dilutions of unlabeled POLA1^CTD constructs; room temperature; 20 mM HEPES pH 7.5, 150 mM NaCl, 5 mM DTT, 0.05% Tween-20; CRL^WT data split into two binding events. The note with it: both partners purified.

Assay [6] addresses T2, His6-MBP-CTC1–STN1–TEN1. The assay is described as follows: MST; binding event 2 (second site), independent experiment 2.
Assay [7] concerns the target T2, His6-MBP-CTC1–STN1–TEN1. The assay is described as follows: MST; binding event 1, independent experiment 1.
In assay [8] the target is T2, His6-MBP-CTC1–STN1–TEN1. The assay is described as follows: MST; binding event 1, independent experiment 3.
Assay [9] concerns the target T2, His6-MBP-CTC1–STN1–TEN1. The assay is described as follows: MST; binding event 1, independent experiment 2.

One may read the stoichiometry N as a count of units in the complex or per binding partner. As for “full-length Polα/primase (POLA1^FL/POLA2/PRIM1/PRIM2), P09884 1-1462; Q14181 1-598; P49642 1-420; P49643 1-509”, the stoichiometry N in assay [1] was found to be 1.

B1: CTC1–STN1–TEN1 (CST) complex (complex, human)
chain 1: T2 chain 1
chain 2: T2 chain 2
chain 3: T2 chain 3
notes: human CTC1; human STN1; human TEN1; Expressed from pBIG1a(His6-MBP-PreSc-CTC1/STN1/TEN1); tag removed with rhinovirus 3C protease; source: Tni insect cells (baculovirus), purified (Ni-NTA, 3C protease cleavage, heparin, SEC); not shown: His6, N-terminal, cleaved; MBP, N-terminal, cleaved; copies: + +
B1: the binding result in [2] is “binds”.

B2: POLA1^CTD with the CRL swapped for a GGSGGS-linker (domain or fragment, human)
chain: AQLTDEEKYRDCERFKCPCPTCGTENIYDNVFDGSGTDMEPSLYRCSNIDCKASPLTFTVQLSNKLIMDIRRFIKKYYDGWLICEEPTCRNRTRHLPLQFSRTGPLCPACMKATLQPEYSDKSLYTQLCFYRYIFDAEGGSGGSTPKVLQDYRKLKNTAEQFLSRSGYSEVNLSKLFAGCAVKS
notes: linker in place of the CRL (residues 1403-1422); also called CRL^GGSGGS; source: E. coli Rosetta(DE3), purified (Ni-NTA, Ulp1 cleavage, reverse Ni-NTA, SEC); not shown: His6, N-terminal, cleaved; Smt3, N-terminal, cleaved
What is called Kd is the free concentration of one partner at which half of the binding sites on the other are occupied at equilibrium, for simple one-to-one binding. Low readings indicate a tighter complex, high ones a looser complex. Take B2: the values for the Kd in the assay with His6-MBP-CTC1–STN1–TEN1 [3], in the assay with His6-MBP-CTC1–STN1–TEN1 [4] and with His6-MBP-CTC1–STN1–TEN1 [6] were 133 µM, 82 µM and 79 µM, respectively. Also, the “KD of binding event 2” value in the assay with His6-MBP-CTC1–STN1–TEN1 [5] was roughly 96 µM.

B3: POLA1^CTD with the CRL swapped for the S. pombe short loop (domain or fragment, human | S. pombe)
chain: AQLTDEEKYRDCERFKCPCPTCGTENIYDNVFDGSGTDMEPSLYRCSNIDCKASPLTFTVQLSNKLIMDIRRFIKKYYDGWLICEEPTCRNRTRHLPLQFSRTGPLCPACMKATLQPEYSDKSLYTQLCFYRYIFQTTTGATKVLQDYRKLKNTAEQFLSRSGYSEVNLSKLFAGCAVKS
notes: short loop of the S. pombe POLA1 orthologue, in place of the human CRL (residues 1400-1424); also called CRL^(S. pombe); source: E. coli Rosetta(DE3), purified (Ni-NTA, Ulp1 cleavage, reverse Ni-NTA, SEC); not shown: His6, N-terminal, cleaved; Smt3, N-terminal, cleaved
Turning to B3, the Kd in the assay with His6-MBP-CTC1–STN1–TEN1 [3] turned out to be 134 µM; in the assay with His6-MBP-CTC1–STN1–TEN1 [4] it was 77 µM; with His6-MBP-CTC1–STN1–TEN1 [6], 75 µM. Besides, the “KD of binding event 2” value in the assay with His6-MBP-CTC1–STN1–TEN1 [5] was roughly 88 µM.

B4: POLA1^CTD with the wild-type CRL (domain or fragment, human, UniProt P09884 1265-1462, looked up)
chain: AQLTDEEKYRDCERFKCPCPTCGTENIYDNVFDGSGTDMEPSLYRCSNIDCKASPLTFTVQLSNKLIMDIRRFIKKYYDGWLICEEPTCRNRTRHLPLQFSRTGPLCPACMKATLQPEYSDKSLYTQLCFYRYIFDAECALEKLTTDHEKDKLKKQFFTPKVLQDYRKLKNTAEQFLSRSGYSEVNLSKLFAGCAVKS
notes: also called CRL^WT; source: E. coli Rosetta(DE3), purified (Ni-NTA, Ulp1 cleavage, reverse Ni-NTA, SEC); not shown: His6, N-terminal, cleaved; Smt3, N-terminal, cleaved
For the molecule B4, the Kd with His6-MBP-CTC1–STN1–TEN1 [3] was found to be 56 µM; with His6-MBP-CTC1–STN1–TEN1 [7] it was 1.4 µM; in the assay with His6-MBP-CTC1–STN1–TEN1 [4] it was 156 µM; in the assay with His6-MBP-CTC1–STN1–TEN1 [6], 216 µM; in the assay with His6-MBP-CTC1–STN1–TEN1 [8], 14 µM; with His6-MBP-CTC1–STN1–TEN1 [9] it was 13 µM. For the same molecule, in the assay with His6-MBP-CTC1–STN1–TEN1 [5], the “KD of binding event 1” value is roughly 3.3 µM. Moreover, in the assay with His6-MBP-CTC1–STN1–TEN1 [5], the “KD of binding event 2” value is roughly 122 µM.
